Data as given in patent publication US20260308224A1, “METHODS AND COMPOSITIONS FOR DISPLAYING PEPTIDE LIBRARIES” (priority 2023, published 2026).

Key:
[1] = biological target: T1, DOR (Homo sapiens, UniProt P41143); assay: tethered peptide library sorting on GFP fluorescence with NGS; assay type: cell-based; settings: metric: positive count
T1 construct: Gpa1 with human Gi3 C-terminal five residues; tethered peptide display
Description: (§1) The first, henceforth referred to as library 1, site saturated the first four positions of the peptide, YGGF, using an NNK mutagenesis strategy (FIG. 5). This is canonically the “message” region, understood to be integral to opioid receptor signaling, with the tyrosine being particularly important. […] In creating this library, it was hoped that it could be determined how much variation is tolerated in this region, and how this might differ for opioid receptor sub-type.
(§2) The second library, library 2, saturated the latter four residues of the peptide, LRRI (FIG. 5). This “address” region is thought to confer receptor specificity, interacting with receptor residues further up the binding pocket (Metzger et al. 2001; Xue et al. 1994; Marie-Pepin et al. 1997), but can still be important for receptor activity. It was hypothesized that more variation would be tolerated in this region, including more sub-type specific variation.
(§3) Libraries were sorted twice on GFP fluorescence. Roughly 15 times the theoretical nucleotide complexity was sorted to ensure rare variants were assayed. […] After the second sorts, the genomes of the positive and negative populations were prepped and the library cassettes were sequenced in technical replicate using NGS at a depth of at least 1 million reads.
(§4) Several strategies were used to both identify unique binders for receptor sub-type and identify generally preferred residues and motifs. Log proportions between the positive and negative pools were determined with a filter of-11 (FIG. 6). […] Because the libraries were sorted twice, and the fraction of cells with a GFP signal small, strong signalers were expected to be present in relatively high numbers in the positive pool.
(§5) To incorporate both metrics, log proportions after a cut off of 500 nucleotide read counts were also determined (FIGS. 7 and 8).
(§6) Beyond identification of general motif trends, variants unique to individual receptors were determined. For a general idea of variant specificity, plots showing receptor specificity by the log proportion metric were generated (FIGS. 12 and 13). […] Logo plots of receptor-unique variants by this metric are highlighted in FIGS. 14 and 15. To account for the noise around potentially low count variants, log proportions between positive and negative pools were determined after filtering on a minimum variant read count of 500 in the positive and negative pools. Variants that were receptor unique by this metric are highlighted in the logo plots in FIGS. 16 and 17.
(§7) Peptide candidates for further analysis were determined by manually curating the three discussed methods (Table 1).
(§8) For cell sorting experiments, post-transformation outgrowths were grown overnight in SD-URA/His pH 5.8 media, and cultures were passaged the following day 1:25 to minimize dead and untransformed cells. The following day the saturated cultures were washed three times in SD-URA/His pH 7.1 100 mM MOPS media without a carbon source to minimize glucose carry-over. Cultures were then diluted 1:10 their initial volume in SD-URA/His pH. 7.1 100 mM MOPS 2% galactose 0.2% glucose media and grown for 24 hours. Cells were then resuspended in an equal volume of TE pH 8.0 and 14-15 million events were sorted using a SH800S Cell Sorter (Sony) on GFP fluorescence, gated for singlets. Cells were sorted into SD-His/URA pH 5.8 media with pen/strep and grown for two days post sorting. Cultures were again washed and induced with galactose and sorted via the same parameters into positive and negative pools and grown up for 2 days. Genome extractions were performed using a Zymo Yeast Star kit.

[2] = tested on: human opioid receptors; assay: tethered peptide orientations and controls, GFP reporter signaling in yeast; assay type: cell-based; settings: pGal1, integrated; FIG. 20 (cholesterol-producing strain CJM263)
Method: (§9) Due to the limited application and efficacy of activating human GPCRs via this strategy, several tethering orientations for the dynorphin peptides were attempted. Anchoring with Flo42 at both the N- and C-termini of the peptides was tried. Additionally, versions with and without a glycine-serine linker between the peptide and the Flo42 region were assayed (versions with linker, FIG. 19). To enable rapid screening, the tethered peptide cassette was expressed on a plasmid under the control of a constitutive promoter.
This optimized tethering orientation was then assayed in the context to be used for library peptide display. Expression was driven by a galactose-inducible promoter, pGal1, and the construct was integrated into the yeast genome. The inducible promoter was used to control the length of peptide expression and minimize potential for unwanted selection from long-term constitutive expression. Like the tethered peptide cassette, receptors were integrated into the genome to avoid downstream issues with variable plasmid copy number and sorting (Bean et al. 2022). […] It was decided to screen MOR with the peptide libraries to determine if there were any variations that could rescue function, with the hypothesis that the sequence space assayed would likely contain variants capable of activating the receptor. […]

[3] = biological target: T2, KOR (Homo sapiens, UniProt P41145); assay: tethered peptide library sorting on GFP fluorescence with NGS; assay type: cell-based; settings: metric: positive count
T2 construct: Gpa1 with human Gi3 C-terminal five residues; tethered peptide display
T2 sequence (P41145 whole entry): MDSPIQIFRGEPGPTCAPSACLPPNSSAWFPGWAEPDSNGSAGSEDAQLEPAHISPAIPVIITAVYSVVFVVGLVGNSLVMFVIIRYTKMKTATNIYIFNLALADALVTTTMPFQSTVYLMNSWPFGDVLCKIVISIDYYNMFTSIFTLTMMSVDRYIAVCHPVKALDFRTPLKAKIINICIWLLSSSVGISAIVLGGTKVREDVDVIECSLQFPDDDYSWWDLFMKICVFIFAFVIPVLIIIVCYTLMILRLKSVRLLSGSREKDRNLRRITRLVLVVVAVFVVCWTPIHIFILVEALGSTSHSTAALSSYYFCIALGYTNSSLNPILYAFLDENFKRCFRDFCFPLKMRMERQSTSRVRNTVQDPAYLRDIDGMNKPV
Description: as §1, §2, §3, §4, §5, §6, §7, §8

[4] = biological target: T1, DOR; assay: tethered peptide agonist display, GFP reporter signaling in yeast; assay type: cell-based; settings: individually cloned tethered isolates (FIG. 27)
Method: as §9, with “Anchoring” for “Due to the limited application and efficacy of activating human GPCRs via this strategy, several tethering orientations for the dynorphin peptides were attempted. Anchoring”
Expression was driven by a galactose-inducible promoter, pGal1, and the construct was integrated into the yeast genome. The inducible promoter was used to control the length of peptide expression and minimize potential for unwanted selection from long-term constitutive expression. Like the tethered peptide cassette, receptors were integrated into the genome to avoid downstream issues with variable plasmid copy number and sorting (Bean et al. 2022).
Plasmids were constructed using Golden Gate assembly of components from the Yeast Toolkit with some adaptations. Receptors were expressed on either 2μ URA3 backbones driven by the CCW12 promoter or integrated into the yeast genome using a URA3 auxotrophic marker and driven by the TDH3 promoter. Tethered peptide cassettes were expressed on either a Cen6 HIS3 backbone or integrated into the yeast genome using HIS3 auxotrophic markers and were driven by pHHF2 for plasmid-based expression, and pGal1 for integrated expression. Oligos were ordered as gblocks or single stranded DNA from IDT.

[5] = biological target: T3, MOR (Homo sapiens, UniProt P35372); assay: tethered peptide library sorting on GFP fluorescence with NGS; assay type: cell-based; settings: metric: positive count
T3 construct: Gpa1/Gi3 chimeric G alpha; exogenous or tethered peptides
T3 sequence (P35372 whole entry): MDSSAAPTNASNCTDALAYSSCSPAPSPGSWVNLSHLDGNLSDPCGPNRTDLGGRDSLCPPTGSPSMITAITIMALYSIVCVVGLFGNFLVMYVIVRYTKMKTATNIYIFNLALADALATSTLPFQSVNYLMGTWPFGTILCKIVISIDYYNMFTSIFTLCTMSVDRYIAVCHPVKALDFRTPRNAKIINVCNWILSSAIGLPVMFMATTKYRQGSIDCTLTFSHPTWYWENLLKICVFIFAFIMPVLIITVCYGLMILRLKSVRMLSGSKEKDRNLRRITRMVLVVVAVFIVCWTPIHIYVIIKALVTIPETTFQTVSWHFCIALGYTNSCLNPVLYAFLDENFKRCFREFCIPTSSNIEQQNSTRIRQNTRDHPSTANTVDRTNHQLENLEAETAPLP
Description: as §1, §2, §3, §4, §5, §6, §7, §8

[6] = tested on: HsDOR; settings: previously tested in yeast (Uddin et al. 2016); cited from earlier work

T1 sequence (P41143 whole entry): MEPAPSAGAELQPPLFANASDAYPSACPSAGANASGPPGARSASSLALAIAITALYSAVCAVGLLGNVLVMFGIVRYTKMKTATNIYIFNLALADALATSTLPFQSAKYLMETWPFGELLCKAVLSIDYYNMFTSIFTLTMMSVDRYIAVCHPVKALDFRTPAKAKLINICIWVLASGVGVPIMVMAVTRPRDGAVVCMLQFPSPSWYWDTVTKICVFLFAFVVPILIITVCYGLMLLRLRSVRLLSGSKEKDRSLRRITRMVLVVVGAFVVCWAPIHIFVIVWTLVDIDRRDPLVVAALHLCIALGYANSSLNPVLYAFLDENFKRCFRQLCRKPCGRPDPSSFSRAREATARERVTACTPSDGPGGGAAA

YGGFSSGL
top-performing motif unique for receptor ([1]; library 2): DOR

YGGFGGSG
top-performing motif unique for receptor ([1]; library 2): DOR

GGGSGGGGSGGGSGGGGS [glycine-serine linker, glycine-serine linker, without peptide agonist, negative control]
activity of negative controls [2]: no activity

WWPDLRRI
top-performing motif unique for receptor ([1]; library 1): DOR

YGFDLRRI
top-performing motif unique for receptor ([1]; library 1): DOR

YGGFYRLR
top-performing motif unique for receptor ([3]; library 2): KOR

YGMELRRI
top-performing motif unique for receptor ([1]; library 1): DOR | receptor specificity of individually cloned isolates [4]: delta-specific | signaling of individually cloned isolates [4]: signaled strongly

YGGFSSRG
top-performing motif unique for receptor ([1]; library 2): DOR

YGGFMGSV
top-performing motif unique for receptor ([5]; library 2): MOR

YGGFYSYA
top-performing motif unique for receptor ([3]; library 2): KOR

YGGFSSSG
top-performing motif unique for receptor ([1]; library 2): DOR

YGFDLLRI
receptor specificity of individually cloned isolates [4]: delta-specific | signaling of individually cloned isolates [4]: signaled strongly

YGGFMVAT
top-performing motif unique for receptor ([5]; library 2): MOR

LVLLLRRI
top-performing motif unique for receptor ([5]; library 1): MOR

YGGFYSRW
top-performing motif unique for receptor ([3]; library 2): KOR

SAWPLRRI
top-performing motif unique for receptor ([3]; library 1): KOR

YQRFLRRI
top-performing motif unique for receptor ([3]; library 1): KOR

YGGFRCCA
top-performing motif unique for receptor ([5]; library 2): MOR

YGGFGSGR
top-performing motif unique for receptor ([1]; library 2): DOR

dynorphin A 1-17
activity [6]: showed activity

GLVNLRRI
top-performing motif unique for receptor ([5]; library 1): MOR

SVPFLRRI
top-performing motif unique for receptor ([3]; library 1): KOR

YGGFMNYP
top-performing motif unique for receptor ([5]; library 2): MOR

SHYVLRRI
top-performing motif unique for receptor ([3]; library 1): KOR

CDIQLRRI
top-performing motif unique for receptor ([3]; library 1): KOR
